Earlier results in patent US6191103A, “Methods for enhancing thrombolysis in a mammal” (priority 1997, dated 2001).

Conditions: in vivo

## tPA: tissue-type plasminogen activator, fibrinolytic agent
  plasma half-life: around 5 minutes
